Assay [1] deals with P100 membrane fraction of Caco-2 cells. Description: Dansylated peptide ELISA: relative binding of PAX2 and HAX42 peptides to P100 fractions (ratio to ZElan021). Conditions: ratio to ZElan021 = 1.00. How it is done: The peptides and proteins were analyzed by a dansylated peptide ELISA method in which 96 well plates were coated overnight at 4° C. with 100 μl/well coating protein (normally 100 μg/ml P100 membrane fraction) in 0.05M carbonate buffer pH9.6. Nonspecific binding was blocked using 200 μl/well, 2% Marvel/PBS for 2 hours at 37° C. prior to incubation with dansylated peptides. The plates were washed three times with PBS/0.05% Tween 20 and after each subsequent incubation step. […] A buffer blank control was included to ensure that background binding to plastic was not due to the antibodies used in the assay system. […] Plates were developed using 75 μl/well Bionostics TMB substrate and incubated for approximately 10 minutes. The developing reaction was stopped using Bionostics Red Stop solution (25 μl/well), and the optical density of the plates was read at 650 nm. […]
In general terms: An ELISA detects its analyte on a solid surface through an enzyme-linked reagent.

Assay [2] addresses bovine serum albumin (bovine) (UniProt P02769). Description: phage ELISA on coated BSA.

Ends that are not written are not given here. Peptide text beside a SMILES is read from it. * marks the point of attachment. Dansyl = CN(C)c1cccc2c(S(=O)(=O)*)cccc12

Sequence of bovine serum albumin (bovine) (P02769 25-607 limits assumed): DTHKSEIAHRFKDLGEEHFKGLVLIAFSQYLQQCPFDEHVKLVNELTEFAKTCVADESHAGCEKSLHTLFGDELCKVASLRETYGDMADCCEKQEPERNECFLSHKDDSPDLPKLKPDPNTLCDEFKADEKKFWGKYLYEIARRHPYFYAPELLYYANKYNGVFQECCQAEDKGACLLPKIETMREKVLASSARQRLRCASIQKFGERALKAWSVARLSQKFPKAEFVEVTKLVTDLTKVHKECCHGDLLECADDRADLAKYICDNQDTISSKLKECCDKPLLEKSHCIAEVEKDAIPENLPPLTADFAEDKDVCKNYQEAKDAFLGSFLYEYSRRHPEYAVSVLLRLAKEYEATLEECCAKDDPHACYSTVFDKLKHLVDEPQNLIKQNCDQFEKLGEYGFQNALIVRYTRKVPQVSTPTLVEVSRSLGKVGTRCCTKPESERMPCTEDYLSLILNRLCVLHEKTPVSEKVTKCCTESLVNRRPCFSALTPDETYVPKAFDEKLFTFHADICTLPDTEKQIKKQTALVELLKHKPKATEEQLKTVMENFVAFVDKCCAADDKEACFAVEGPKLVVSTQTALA

For the molecule `CC[C@H](C)[C@H](NC(=O)[C@H](C)NC(=O)[C@H](CO)NC(=O)[C@@H]1CCCN1C(=O)[C@H](CCCNC(=N)N)NC(=O)[C@H](CCCNC(=N)N)NC(=O)[C@H](CC(N)=O)NC(=O)[C@H](Cc1ccccc1)NC(=O)[C@@H](NC(=O)[C@H](CCCCN)NC(=O)[C@H](CCCNC(=N)N)NC(=O)CNC(=O)[C@@H](NC(=O)[C@H](CO)NC(=O)[C@H](CC(N)=O)NC(=O)CNC(=O)[C@H](CC(N)=O)NC(=O)CNC(=O)[C@H](CS)NC(=O)[C@H](CS)NC(=O)[C@H](CC(N)=O)NC(=O)[C@H](Cc1ccc(O)cc1)NC(=O)[C@H](CC(=O)O)NC(=O)CNC(=O)[C@@H]1CCCN1C(=O)[C@@H](N)CCCCNS(=O)(=O)c1cccc2c(N(C)C)cccc12)[C@@H](C)O)C(C)C)C(=O)N1CCC[C@H]1C(=O)N[C@H](C(N)=O)[C@@H](C)O` [ZElan072] (H-K(Dansyl)PGDYNCCGNGNSTGRKVFNRRPSAIPT-NH2), in assay [1] (HAX42 peptides), the “Binding value at 20 μg/ml” value is 0.83. Further, the “Binding value at 50 μg/ml” value in assay [1] (HAX42 peptides, first column) was 0.61; in assay [1] (HAX42 peptides, second column), 0.88.

Consider `CC(C)C[C@H](NC(=O)[C@H](C)NC(=O)[C@H](Cc1c[nH]cn1)NC(=O)[C@H](CC(=O)O)NC(=O)[C@H](CO)NC(=O)[C@@H](N)CCCCNS(=O)(=O)c1cccc2c(N(C)C)cccc12)C(=O)NCC(=O)N[C@H](C(=O)N[C@@H](CC(N)=O)C(=O)N[C@@H](CC(C)C)C(=O)N[C@@H](CCCNC(=N)N)C(=O)N[C@@H](CO)C(=O)N[C@@H](CC(=O)O)C(=O)N[C@@H](CC(N)=O)C(=O)N[C@@H](C)C(=O)N[C@@H](CCCCN)C(=O)N[C@@H](CCC(=O)O)C(=O)N1CCC[C@H]1C(=O)NCC(=O)N[C@@H](CC(=O)O)C(=O)N[C@@H](Cc1ccc(O)cc1)C(=O)N[C@@H](CC(N)=O)C(=O)N[C@@H](CS)C(=O)N[C@@H](CS)C(=O)NCC(=O)N[C@@H](CC(N)=O)C(=O)NCC(=O)N[C@@H](CC(N)=O)C(=O)N[C@@H](CO)C(=O)N[C@H](C(N)=O)[C@@H](C)O)[C@@H](C)O` [ZElan070] (H-K(Dansyl)SDHALGTNLRSDNAKEPGDYNCCGNGNST-NH2), for which, in assay [1] (HAX42 peptides), the “Binding value at 20 μg/ml” value turned out to be 0.59. For the same molecule, the “Binding value at 50 μg/ml” value in assay [1] (HAX42 peptides, first column) was determined as 0.97; in assay [1] (HAX42 peptides, second column) it was 0.39.

Consider `CC(C)C[C@H](NC(=O)[C@H](CCCNC(=N)N)NC(=O)[C@H](CCCNC(=N)N)NC(=O)[C@@H](N)CCCCNS(=O)(=O)c1cccc2c(N(C)C)cccc12)C(=O)N[C@@H](CCCNC(=N)N)C(=O)N[C@H](C(=O)N[C@@H](CCCNC(=N)N)C(=O)N[C@@H](CO)C(=O)N[C@@H](CCCNC(=N)N)C(=O)N1CCC[C@H]1C(=O)N[C@@H](CC(N)=O)C(N)=O)[C@@H](C)O` [ZElan056] (H-K(Dansyl)RRLRTRSRPN-NH2), for which, in assay [1] (PAX2 peptides, first column), the “Binding value at 20 μg/ml” value came out at 0.00 and the “Binding value at 50 μg/ml” value is on record as 0.21. For the same molecule, in assay [1] (PAX2 peptides, second column), the “Binding value at 20 μg/ml” value is recorded as 0.16 and the “Binding value at 50 μg/ml” value was determined as 0.21.

`CC(C)C[C@H](NC(=O)[C@H](CCCNC(=N)N)NC(=O)[C@H](CCCNC(=N)N)NC(=O)[C@H](CC(N)=O)NC(=O)[C@H](Cc1c[nH]cn1)NC(=O)[C@H](CO)NC(=O)[C@H](CO)NC(=O)[C@H](Cc1c[nH]cn1)NC(=O)[C@H](CCCCN)NC(=O)[C@H](C)NC(=O)[C@H](CC(N)=O)NC(=O)[C@@H](NC(=O)[C@@H](N)CCCCNS(=O)(=O)c1cccc2c(N(C)C)cccc12)[C@@H](C)O)C(=O)N[C@@H](CCCNC(=N)N)C(=O)N[C@H](C(=O)N[C@@H](CCCNC(=N)N)C(N)=O)[C@@H](C)O` [ZElan033] (H-K(Dansyl)TNAKHSSHNRRLRTR-NH2): in assay [1] (PAX2 peptides, first column), the “Binding value at 20 μg/ml” value worked out at 0.35 and the “Binding value at 50 μg/ml” value came out at 0.80. The “Binding value at 50 μg/ml” value in assay [1] (PAX2 peptides, second column) worked out at 0.66.

Take `CC(C)C[C@H](NC(=O)[C@H](CCCNC(=N)N)NC(=O)[C@H](CCCNC(=N)N)NC(=O)[C@@H](N)CCCCNS(=O)(=O)c1cccc2c(N(C)C)cccc12)C(=O)N[C@@H](CCCNC(=N)N)C(=O)N[C@H](C(=O)N[C@@H](CCCNC(=N)N)C(N)=O)[C@@H](C)O` [ZElan058, H2N-K(dns)RRLRTR-CONH2] (H-K(Dansyl)RRLRTR-NH2): in assay [1] (PAX2 peptides, first column), the “Binding value at 20 μg/ml” value is reported as 0.05 and the “Binding value at 50 μg/ml” value was 0.47. For the same molecule, the “Binding value at 50 μg/ml” value in assay [1] (PAX2 peptides, second column) came to 0.16.

RWNWTVLPATGGHYWTRSTDYHAINNHRPSIPHQHPTPI [phage DCX33]: the OD in assay [2] was 0.103 OD 650 nm.

For the molecule RMEDIKNSGWRDSCRWGDLRPGCGSRQWYPSNMRSSRDYPAGGH [phage DAX24], the OD in assay [2] amounted to 0.118 OD 650 nm.

Turning to SGGEVSSWGRVNDLCARVSWTGCGTARSARTDNKGFLPKHSSLR [phage SNi45], the OD in assay [2] is 0.056 OD 650 nm.

As to RSSANNCEWKSDWMRRACIARYANSSGPARAVDTKAAP [phage DAB18], the OD in assay [2] worked out at 0.085 OD 650 nm.

SGRTTSEISGLWGWGDDRSGYGWGNTLRPNYIPYRQATNRHRYT [phage DCX26]: the OD in assay [2] is 0.213 OD 650 nm.

In turn, REWRFAGPPLDLWAGPSLPSFNASSHPRALRTYWSQRPR [phage DAX23] registered an OD in assay [2] of 0.153 OD 650 nm.

Take SKWSWSSRWGSPQDKVEKTRAGCGGSPSSTNCHPYTFAPPPQAG [phage DAB24]: in assay [2], the OD turned out to be 0.441 OD 650 nm.

B1: phage SNiAX2 (peptide)
peptide: SDSDGDHYGLRGGVRCSLRDRGCGLALSTVHAGPPSFYPKLSSP
modifications: cysteine pairing not given here; also: displayed as N-terminal pIII fusion on M13 phage
Consider B1, for which the OD in assay [2] amounted to 0.065 OD 650 nm.

For SESGRCRSVSRWMTTWQTQKGGCGSNVSRGSPLDPSHQTGHATT [phage DAX15], in assay [2], the OD is 0.101 OD 650 nm.

For SWTRWGKHTHGGFVNKSPPGKNATSPYTDAQLPSDQGPP (peptide, not shown: large carriers) [phage PAX16], in assay [2], the OD stood at 0.171 OD 650 nm.

As to SKSGEGGDSSRGETGWARVRSHAMTAGRFRWYNQLPSDR [phage DAB10], the OD in assay [2] turned out to be 0.153 OD 650 nm.

In assay [2], RTFENDGLGVGRSIQKKSDRWYASHNIRSHFASMSPAGK (peptide, not shown: large carriers) [phage PAX14] yielded an OD of 0.139 OD 650 nm.

For RGAADQRRGWSENLGLPRVGWDAIAHNSYTFTSRRPRPP [phage SNi38], the OD in assay [2] is 0.076 OD 650 nm.

SHSGGMNRAYGDVFRELRDRWNATSHHTRPTPQLPRGPN [phage SNi28]: the OD in assay [2] came out at 0.113 OD 650 nm.

RSGAYESPDGRGGRSYVGGGGGCGNIGRKHNLWGLRTASPACWD [phage S15]: in assay [2], the OD came to 0.053 OD 650 nm.

Molecule SPKLSSVGVMTKVTELPTEGPNAISIPISATLGPRNPLR (also: displayed as N-terminal pIII fusion on M13 phage) [phage SNiAX8] yielded an OD in assay [2] of 0.068 OD 650 nm.

RWCGADDPCGASRWRGGNSLFGCGLRCSAAQSTPSGRIHSTSTS [phage DAB7] came in with an OD in assay [2] of 0.09 OD 650 nm.

SPCGGSWGRFMQGGLFGGRTDGCGAHRNRTSASLEPPSSDY [phage SNi34] gave an OD in assay [2] of 0.115 OD 650 nm.

SGFWEFSRGLWDGENRKSVRSGCGFRGSSAQGPCPVTPATIDKH [phage DAB30] came in with an OD in assay [2] of 0.121 OD 650 nm.

In assay [2], SVGNDKTSRPVSFYGRVSDLWNASLMPKRTPSSKRHDDG [phage DCX45] registered an OD of 0.075 OD 650 nm.

B2: phage SNiAX6 (peptide)
peptide: RTTTAKGCLLGSFGVLSGCSFTPTSPPPHLGYPPHSVN
modifications: cysteine pairing not given here; also: displayed as N-terminal pIII fusion on M13 phage
On to B2, for which, in assay [2], the OD was found to be 0.056 OD 650 nm.

Take RWCGAELCNSVTKKFRPGWRDHANPSTHHRTPPPSQSSP [phage DAB3]: the OD in assay [2] turned out to be 0.072 OD 650 nm.

In assay [2], SHPWYRHWNHGDFSGSGQSRHTPPESPHPGRPNATI [phage DAX27] displayed an OD of 0.424 OD 650 nm.

In the case of SSSSDWGGVPGKVVRERFKGRGCGISITSVLTGKPNPCPEPKAA [phage S22], the OD in assay [2] was found to be 0.061 OD 650 nm.

On to RVGQCTDSDVRRPWARSCAHQGCGAGTRNSHGCITRPLRQASAH [phage SNi10], for which the OD in assay [2] turned out to be 0.051 OD 650 nm.
